The Kd is the concentration at which binding is half-saturated. A higher Kd goes with weaker binding.

In test [1] the target is T1, sLTβR (UniProt P36941 31-227, limits assumed).
T1 construct: Used in solution in ITC and as the analyte in SPR; also called soluble lymphotoxin beta receptor; antigen
Briefly: isothermal titration calorimetry at 30 °C, Fab titrated into sLTβR in PBS.
Procedure: The Fab and sLTβR were concentrated to 6.0 and 2.0 mg/mL, respectively, using Amicon ultracentrifugal filter devices (MWCO 10,000). The concentrated stock solutions were simultaneously dialyzed against PBS prior to the ITC measurements. ITC was performed on a VP-ITC unit (MicroCal LLC, Northampton, Mass.) set to 30° C. Approximately 500 μL of a 7 μM sLTβR solution was placed into the sample cell and PBS dialysate was placed in the reference cell. […] ITC curves were analysed using the Origin Software supplied by the manufacturer.

The target in a further test is T2, LTβR-Ig (UniProt P36941 31-227, limits assumed).
T2 construct: extracellular domain; also called LTβR Ig receptor; recombinantly produced LTβR receptor; not shown: human Fc region
Put plainly: thermal challenge assay; T50 = temperature at which 50% of the molecules keep binding to plate-coated LTβR-Ig (DELFIA); unit taken from the x axis.

Test [2] deals with T1, sLTβR. Briefly: SPR (Biacore 3000); with VH44/VL100 disulfide (second 'VH-S16Q, VL-S46L' row, below the disulfide wild-type).

T1 sequence (P36941 31-227 limits assumed): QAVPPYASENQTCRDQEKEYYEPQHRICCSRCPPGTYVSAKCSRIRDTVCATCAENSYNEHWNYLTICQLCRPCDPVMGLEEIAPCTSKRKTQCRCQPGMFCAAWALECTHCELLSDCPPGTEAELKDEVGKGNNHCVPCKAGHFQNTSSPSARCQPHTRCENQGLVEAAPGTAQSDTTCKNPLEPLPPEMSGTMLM
T2 sequence (P36941 31-227 limits assumed): as above
Procedure for LTβR-Ig: An aliquot of the supernatant was reserved for the reference DELFIA. […] For screens requiring multiple challenge temperatures (or for temperatures greater than 75° C.) the supernatants were transferred to 96-well PCR plates (Applied Biosystems, Foster City, Calif., Cat. # N801-560) and incubated for 90 minutes at the desired temperature.
After thermal challenge, the samples were centrifuged at 2,000 RPM to remove aggregated material. Soluble BHA10 scFv samples remaining in the treated, cleared supernatant were assayed for binding to cognate LTβR Ig antigen by DELFIA assay. […] Plates were coated overnight at 4° C., and blocked with DELFIA assay buffer (DAB, 10 mM Tris HCl, 150 mM NaCl, 20 μM EDTA, 0.5% BSA, 0.02% Tween 20, 0.01% NaN₃, pH 7.4) for one hour with shaking at room temperature. Plates were washed 3 times with DAB without BSA (Wash buffer), and test samples diluted in DAB were added to the plates in a final volume of 100 μl. The plates were incubated for one hour with shaking at room temperature, and then washed 3 times with Wash buffer to remove unbound and functionally inactivated scFv molecules. Bound BHA10 scFv was detected by addition of 100 μl per well of DAB containing 40 ng/ml of Eu-labeled anti-His₆ antibody (Perkin Elmer, Boston, Mass., Cat. # AD0109) and incubated at room temperature with shaking for one hour.

B1: BHA10 Fab (Fab, V domains shown)
VH: QVQLVQSGAEVKKPGSSVKVSCKASGYTFTTYYLHWVRQAPGQGLEWMGWIYPGNVHAQYNEKFKGRVTITADKSTSTAYMELSSLRSEDTAVYYCARSWEGFPYWGQGTTVTVSS
VL: DIQMTQSPSSLSASVGDRVTITCKASQNVGINVAWYQQKPGKAPKSLISSASYRYSGVPSRFSGSGSGTDFTLTISSLQPEDFATYFCQQYDTYPFTFGQGTKVEIK
notes: Made by enzymatic cleavage of BHA10 IgG1; also called BHA10 Fab (CHO)
With B1, in the test with sLTβR [1], the Kd amounted to 1.9 nM. Besides, in the test with LTβR-Ig, the T50 is 62 °C.

B2: BHA10 scFv VH44/VL100 disulfide, VH-S16Q, VL-S46L, (G4S)4 linker (scFv, name in Kabat numbering)
scFv: QVQLVQSGAEVKKPGQSVKVSCKASGYTFTTYYLHWVRQAPGQCLEWMGWIYPGNVHAQYNEKFKGRVTITADKSTSTAYMELSSLRSEDTAVYYCARSWEGFPYWGQGTTVTVSSGGGGSGGGGSGGGGSGGGGSDIQMTQSPSSLSASVGDRVTITCKASQNVGINVAWYQQKPGKAPKLLISSASYRYSGVPSRFSGSGSGTDFTLTISSLQPEDFATYFCQQYDTYPFTFGCGTKVEIK
notes: It is read here as the disulfide version; also called pIEH081
B2 returned a Kd with sLTβR [2] of 3.3 nM.
